Measured values taken from the supplement of paper PMC5998384.

Assays:
[1] = tested on: HeLa Kyoto; experiment: solubility in G1/S (NP-40 vs SDS abundance) (log2 ratio); higher = more soluble; conditions: cell cycle stage: G1/S
[2] = tested on: HeLa Kyoto; experiment: melting temperature (median over replicates), in situ; higher = more thermally stable
[3] = tested on: HeLa Kyoto; experiment: solubility change mitosis vs G1/S (difference of NP-40 vs SDS log2 ratios) (log2 ratio difference); higher = more soluble in mitosis
[4] = tested on: HeLa Kyoto; experiment: thermal stability score vs G1/S (z-score of summed log2 fold changes over temperatures); higher = more thermally stable than in G1/S
[5] = cell cycle stage: early G1 (4.5 h after nocodazole release)
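Throughout, for melting temperature (median over replicates), in situ: HeLa Kyoto cells synchronized by double thymidine or nocodazole block, proteins quantified by TMT10plex mass spectrometry, three independent biological replicates.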
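Throughout, for solubility change mitosis vs G1/S (difference of NP-40 vs SDS log2 ratios): synchronized HeLa Kyoto cells (double thymidine block for G1/S, nocodazole release for mitosis), protein amounts in NP-40 versus SDS lysates quantified by mass spectrometry, three biological replicates.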
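Throughout, for solubility in G1/S (NP-40 vs SDS abundance): HeLa Kyoto cells arrested at G1/S by double thymidine block, proteins quantified by TMT10plex mass spectrometry in mild NP-40 versus SDS extracts, three biological replicates.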
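Throughout, for thermal stability score vs G1/S (z-score of summed log2 fold changes over temperatures): synchronized HeLa Kyoto cells, proteins quantified by TMT10plex mass spectrometry, three biological replicates, mitosis taken 0.5 h after nocodazole release, G1/S directly after double thymidine block.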

Sequence | solubility in G1/S (log2) [1] | melting temperature ([2]; cell cycle stage: G1/S) | melting temperature ([2]; cell cycle stage: mitosis) | solubility change mitosis (log2) [3] | thermal stability score [4, 5] | thermal stability score ([4]; cell cycle stage: mitosis)
MRAVRRGLREGGAMAAARDPPEVSLREATQRKLRRFSELRGKLVARGEFWDIVAITAADEKQELAYNQQLSEKLKRKELPLGVQYHVFVDPAGAKIGNGGSTLCALQCLEKLYGDKWNSFTILLIHSGGYSQRLPNASALGKIFTALPLGNPIYQMLELKLAMYIDFPLNMNPGILVTCADDIELYSIGEFEFIRFDKPGFTALAHPSSLTIGTTHGVFVLDPFDDLKHRDLEYRSCHRFLHKPSIEKMYQFNAVCRPGNFCQQDFAGGDIADLKLDSDYVYTDSLFYMDHKSAKMLLAFYEKIGTLSCEIDAYGDFLQALGPGATVEYTRNTSNVIKEESELVEMRQRIFHLLKGTSLNVVVLNNSKFYHIGTTEEYLFYFTSDNSLKSELGLQSITFSIFPDIPECSGKTSCIIQSILDSRCSVAPGSVVEYSRLGPDVSVGENCIISGSYILTKAALPAHSFVCSLSLKMNRCLKYATMAFGVQDNLKKSVKTLSDIKLLQFFGVCFLSCLDVWNLKVTEELFSGNKTCLSLWTARIFPVCSSLSDSVITSLKMLNAVKNKSAFSLNSYKLLSIEEMLIYKDVEDMITYREQIFLEISLKSSLM [FPGT] | 0.115 | 54.4 °C | 55.1 °C | -0.353 | 1.19 | 2.29
MRECISVHVGQAGVQMGNACWELYCLEHGIQPDGQMPSDKTIGGGDDSFTTFFCETGAGKHVPRAVFVDLEPTVIDEIRNGPYRQLFHPEQLITGKEDAANNYARGHYTIGKEIIDPVLDRIRKLSDQCTGLQGFLVFHSFGGGTGSGFTSLLMERLSVDYGKKSKLEFSIYPAPQVSTAVVEPYNSILTTHTTLEHSDCAFMVDNEAIYDICRRNLDIERPTYTNLNRLISQIVSSITASLRFDGALNVDLTEFQTNLVPYPRIHFPLATYAPVISAEKAYHEQLSVAEITNACFEPANQMVKCDPRHGKYMACCLLYRGDVVPKDVNAAIAAIKTKRSIQFVDWCPTGFKVGINYQPPTVVPGGDLAKVQRAVCMLSNTTAIAEAWARLDHKFDLMYAKRAFVHWYVGEGMEEGEFSEAREDMAALEKDYEEVGIDSYEDEDEGEE [TUBA4A] | 0.111 | 55.6 °C | 54.2 °C | -0.138 | -0.775 | -2.94
MREIVHIQAGQCGNQIGTKFWEVISDEHGIDPAGGYVGDSALQLERINVYYNESSSQKYVPRAALVDLEPGTMDSVRSGPFGQLFRPDNFIFGQTGAGNNWAKGHYTEGAELVDAVLDVVRKECEHCDCLQGFQLTHSLGGGTGSGMGTLLISKIREEFPDRIMNTFSVMPSPKVSDTVVEPYNATLSVHQLVENTDETYCIDNEALYDICFRTLKLTTPTYGDLNHLVSATMSGVTTSLRFPGQLNADLRKLAVNMVPFPRLHFFMPGFAPLTSRGSQQYRALTVPELTQQMFDARNMMAACDPRHGRYLTVATVFRGPMSMKEVDEQMLAIQSKNSSYFVEWIPNNVKVAVCDIPPRGLKMASTFIGNSTAIQELFKRISEQFSAMFRRKAFLHWFTGEGMDEMEFTEAESNMNDLVSEYQQYQDATANDGEEAFEDEEEEIDG [TUBB6] | 0.0985 | 54.8 °C | 53.8 °C | -0.124 | -0.862 | -2.31
MREYKVVVLGSGGVGKSALTVQFVTGTFIEKYDPTIEDFYRKEIEVDSSPSVLEILDTAGTEQFASMRDLYIKNGQGFILVYSLVNQQSFQDIKPMRDQIVRVKRYEKVPLILVGNKVDLEPEREVMSSEGRALAQEWGCPFMETSAKSKSMVDELFAEIVRQMNYSSLPEKQDQCCTTCVVQ [RAP2C] | 0.0732 | 56.9 °C | 55.4 °C | -0.0697 | 1.5 | -1.73
MRGEQGAAGARVLQFTNCRILRGGKLLREDLWVRGGRILDPEKLFFEERRVADERRDCGGRILAPGFIDVQINGGFGVDFSQATEDVGSGVALVARRILSHGVTSFCPTLVTSPPEVYHKVVPQIPVKSGGPHGAGVLGLHLEGPFISREKRGAHPEAHLRSFEADAFQDLLATYGPLDNVRIVTLAPELGRSHEVIRALTARGICVSLGHSVADLRAAEDAVWSGATFITHLFNAMLPFHHRDPGIVGLLTSDRLPAGRCIFYGMIADGTHTNPAALRIAHRAHPQGLVLVTDAIPALGLGNGRHTLGQQEVEVDGLTAYVAGTKTLSGSIAPMDVCVRHFLQATGCSMESALEAASLHPAQLLGLEKSKGTLDFGADADFVVLDDSLHVQATYISGELVWQADAARQ [AMDHD2] | -0.0483 | 55.1 °C | 54.3 °C | -0.0923 | -1.01 | -2.12
MRGFGPGLTARRLLPLRLPPRPPGPRLASGQAAGALERAMDELLRRAVPPTPAYELREKTPAPAEGQCADFVSFYGGLAETAQRAELLGRLARGFGVDHGQVAEQSAGVLHLRQQQREAAVLLQAEDRLRYALVPRYRGLFHHISKLDGGVRFLVQLRADLLEAQALKLVEGPDVREMNGVLKGMLSEWFSSGFLNLERVTWHSPCEVLQKISEAEAVHPVKNWMDMKRRVGPYRRCYFFSHCSTPGEPLVVLHVALTGDISSNIQAIVKEHPPSETEEKNKITAAIFYSISLTQQGLQGVELGTFLIKRVVKELQREFPHLGVFSSLSPIPGFTKWLLGLLNSQTKEHGRNELFTDSECKEISEITGGPINETLKLLLSSSEWVQSEKLVRALQTPLMRLCAWYLYGEKHRGYALNPVANFHLQNGAVLWRINWMADVSLRGITGSCGLMANYRYFLEETGPNSTSYLGSKIIKASEQVLSLVAQFQKNSKL [MLYCD] | 0.0216 | 52.7 °C | 54.3 °C | -0.194 | -0.712 | -1.19
MRGPPAWPLRLLEPPSPAEPGRLLPVACVWAAASRVPGSLSPFTGLRPARLWGAGPALLWGVGAARRWRSGCRGGGPGASRGVLGLARLLGLWARGPGSCRCGAFAGPGAPRLPRARFPGGPAAAAWAGDEAWRRGPAAPPGDKGRLRPAAAGLPEARKLLGLAYPERRRLAAAVGFLTMSSVISMSAPFFLGKIIDVIYTNPTVDYSDNLTRLCLGLSAVFLCGAAANAIRVYLMQTSGQRIVNRLRTSLFSSILRQEVAFFDKTRTGELINRLSSDTALLGRSVTENLSDGLRAGAQASVGISMMFFVSPNLATFVLSVVPPVSIIAVIYGRYLRKLTKVTQDSLAQATQLAEERIGNVRTVRAFGKEMTEIEKYASKVDHVMQLARKEAFARAGFFGATGLSGNLIVLSVLYKGGLLMGSAHMTVGELSSFLMYAFWVGISIGGLSSFYSELMKGLGAGGRLWELLEREPKLPFNEGVILNEKSFQGALEFKNVHFAYPARPEVPIFQDFSLSIPSGSVTALVGPSGSGKSTVLSLLLRLYDPASGTISLDGHDIRQLNPVWLRSKIGTVSQEPILFSCSIAENIAYGADDPSSVTAEEIQRVAEVANAVAFIRNFPQGFNTVVGEKGVLLSGGQKQRIAIARALLKNPKILLLDEATSALDAENEYLVQEALDRLMDGRTVLVIAHRLSTIKNANMVAVLDQGKITEYGKHEELLSKPNGIYRKLMNKQSFISA [ABCB10] | -0.0973 | 53.8 °C | 54 °C | -0.029 | 0.476 | -0.874
MRKPDSKIVLLGDMNVGKTSLLQRYMERRFPDTVSTVGGAFYLKQWRSYNISIWDTAGREQFHGLGSMYCRGAAAIILTYDVNHRQSLVELEDRFLGLTDTASKDCLFAIVGNKVDLTEEGALAGQEKEECSPNMDAGDRVSPRAPKQVQLEDAVALYKKILKYKMLDEQDVPAAEQMCFETSAKTGYNVDLLFETLFDLVVPMILQQRAERPSHTVDISSHKPPKRTRSGCCA [RAB20] | 0.0752 | 54.4 °C | 53.8 °C | -0.187 | 3.91 | 1.44
MRKVVLITGASSGIGLALCKRLLAEDDELHLCLACRNMSKAEAVCAALLASHPTAEVTIVQVDVSNLQSVFRASKELKQRFQRLDCIYLNAGIMPNPQLNIKALFFGLFSRKVIHMFSTAEGLLTQGDKITADGLQEVFETNVFGHFILIRELEPLLCHSDNPSQLIWTSSRSARKSNFSLEDFQHSKGKEPYSSSKYATDLLSVALNRNFNQQGLYSNVACPGTALTNLTYGILPPFIWTLLMPAILLLRFFANAFTLTPYNGTEALVWLFHQKPESLNPLIKYLSATTGFGRNYIMTQKMDLDEDTAEKFYQKLLELEKHIRVTIQKTDNQARLSGSCL [HSD17B7] | -0.113 | 52.8 °C | 51 °C | -0.161 | -1.29 | -0.53
MRLALLWALGLLGAGSPLPSWPLPNIGGTEEQQAESEKAPREPLEPQVLQDDLPISLKKVLQTSLPEPLRIKLELDGDSHILELLQNRELVPGRPTLVWYQPDGTRVVSEGHTLENCCYQGRVRGYAGSWVSICTCSGLRGLVVLTPERSYTLEQGPGDLQGPPIISRIQDLHLPGHTCALSWRESVHTQKPPEHPLGQRHIRRRRDVVTETKTVELVIVADHSEAQKYRDFQHLLNRTLEVALLLDTFFRPLNVRVALVGLEAWTQRDLVEISPNPAVTLENFLHWRRAHLLPRLPHDSAQLVTGTSFSGPTVGMAIQNSICSPDFSGGVNMDHSTSILGVASSIAHELGHSLGLDHDLPGNSCPCPGPAPAKTCIMEASTDFLPGLNFSNCSRRALEKALLDGMGSCLFERLPSLPPMAAFCGNMFVEPGEQCDCGFLDDCVDPCCDSLTCQLRPGAQCASDGPCCQNCQLRPSGWQCRPTRGDCDLPEFCPGDSSQCPPDVSLGDGEPCAGGQAVCMHGRCASYAQQCQSLWGPGAQPAAPLCLQTANTRGNAFGSCGRNPSGSYVSCTPRDAICGQLQCQTGRTQPLLGSIRDLLWETIDVNGTELNCSWVHLDLGSDVAQPLLTLPGTACGPGLVCIDHRCQRVDLLGAQECRSKCHGHGVCDSNRHCYCEEGWAPPDCTTQLKATSSLTTGLLLSLLVLLVLVMLGASYWYRARLHQRLCQLKGPTCQYRAAQSGPSERPGPPQRALLARGTKQASALSFPAPPSRPLPPDPVSKRLQAELADRPNPPTRPLPADPVVRSPKSQGPAKPPPPRKPLPADPQGRCPSGDLPGPGAGIPPLVVPSRPAPPPPTVSSLYL [ADAM15] | 0.293 | 54.2 °C | 55.4 °C | -0.0652 | 0.908 | 2.18
MRLRRLALFPGVALLLAAARLAAASDVLELTDDNFESRISDTGSAGLMLVEFFAPWCGHCKRLAPEYEAAATRLKGIVPLAKVDCTANTNTCNKYGVSGYPTLKIFRDGEEAGAYDGPRTADGIVSHLKKQAGPASVPLRTEEEFKKFISDKDASIVGFFDDSFSEAHSEFLKAASNLRDNYRFAHTNVESLVNEYDDNGEGIILFRPSHLTNKFEDKTVAYTEQKMTSGKIKKFIQENIFGICPHMTEDNKDLIQGKDLLIAYYDVDYEKNAKGSNYWRNRVMMVAKKFLDAGHKLNFAVASRKTFSHELSDFGLESTAGEIPVVAIRTAKGEKFVMQEEFSRDGKALERFLQDYFDGNLKRYLKSEPIPESNDGPVKVVVAENFDEIVNNENKDVLIEFYAPWCGHCKNLEPKYKELGEKLSKDPNIVIAKMDATANDVPSPYEVRGFPTIYFSPANKKLNPKKYEGGRELSDFISYLQREATNPPVIQEEKPKKKKKAQEDL [PDIA3] | 0.299 | 53.3 °C | 53.7 °C | 0.000907 | 4.82 | 4.63
